Measured values from patent US9951373B2, “Oplophorus-derived luciferases, novel coelenterazine substrates, and methods of use” (Promega Corporation, priority 2010, dated 2018).

Experiments:
[1] = Thermal stability of OgLuc variants at 60° C.; type: physicochemical; details: 60° C., assay buffer MES pH 6.0
Protocol: Aliquots were removed at different time-points and placed on dry ice to freeze the samples. […] Luminescence was measured on a GLOMAX® luminometer (Promega Corp.).
The thermal stability of the variants at 60° C. was examined as described above, except the assay buffer contained 100 mM MES pH 6.0 instead of HEPES.

[2] = Luminescence of 9B8 opt+K33N derived variants in E. coli; type: biochemical; details: bacterial lysates
Protocol: Luminescence generated from the lysates was measured using the novel PBI-3939 and native coelenterazine as substrates. The relative specificity of the variants for PBI-3939 and native coelenterazine was calculated as described previously.
A new OgLuc library was created using 9B8opt+K33N as a starting template. The random library was created using DIVERSIFY® PCR Random Mutagenesis Kit (ClonTech; Catalog #630703). Condition 5 (as listed in the user manual) was used to generate additional variants, and the average mutation rate was calculated to be 2.6 mutations per gene by compiling sequence data from 83 randomly selected clones. This PCR library was cloned into the pF4Ag-based, non-fusion vector background described previously and the sandwich background, i.e., Id-OgLuc-HT7 (described in Example 45). Variants in the pF4Ag-base non-fusion vector background are designated with (NF). Variants in the sandwich vector background are designated with (F). In order to clone the PCR product into both vectors, an amino acid, i.e., a glycine, was appended to the variant sequence in pF4Ag, generating a new position 170 in the OgLuc variant (“170G”). The 170G is present in the sandwich construct, but in this case is considered part of the linker between OgLuc and HT7. For each library, 4,400 E. coli clones were assayed as described previously with the following exceptions. […] The assay buffer contained 100 mM MES pH 6.0 instead of HEPES, and 35 mM thiourea. The assay volumes were as follows: 10 μL cells, 40 μL, lysis buffer, and 50 μL, assay buffer.
E. coli lysates containing the variants were prepared and analyzed as described previously. Luminescence generated from the lysates was measured using the novel PBI-3939 and native coelenterazine as substrates. The luminescence of the variants was normalized to the luminescence generated by 9B8 opt (Table 12). The relative specificity of the variants for PBI-3939 and native coelenterazine was calculated by dividing the luminescence of the variants using PBI-3939 as a substrate with the luminescence of the variants using native coelenterazine as a substrate (Table 12).

[3] = Enzyme kinetics of OgLuc variants in E. coli lysates; type: biochemical; details: PBI-3939, E. coli lysates
Protocol: Using methods known in the art, enzyme kinetic assays measuring luminescence were performed with the lysates of E. coli containing IV and the IV variants 15C1, 9B8, 9F6, and 9A3. […] Two fold serial dilutions of PBI-3939 in the assay buffer described previously in Example 26 were assayed with the diluted lysates. […] Variants 9B8 and 9F6 had higher Km values compared to IV while Km values for the other variants were unchanged.
Luminescence was measured on a TECAN® INFINITE® F500 luminometer.
The enzyme kinetics values were determined for the OgLuc variants as described previously, except luminescence was measured using a GLOMAX® luminometer. Three replicates were used for each variant.

[4] = Stability of variants expressed in HEK293 cells; type: physicochemical; details: 20 μM PBI-3939
Protocol: The variants 9B8 and V2 (9B8+K33N+T39T+K43R+Y68D) were also screened in HEK293 cells to determine their stability. The variants were cloned into pF4Ag and transfected into HEK293 cells (15,000 cells/well) as previously described. After transfection, the cells were lysed in assay reagent (as previously described; no PBI-3939), and luminescence measured using the assay reagent with 20 μM PBI-3939. […] This is consistent with the half-life seen for these variants in E. coli (Table 26).

HEK293 cells [5] = test: Luminescence of OgLuc variants expressed in HEK293 cells; type: cell-based, human; details: PBI-3939
Protocol: (§1) The PCR library in the pF4Ag-based non-fusion background was screened for additional variants with increased luminescence compared to 9B8 opt+K33N+170G (SEQ ID NOs: 68 and 69). Selected variants were then assayed in HEK293 and NIH3T3 cells. For each cell type, 15,000 cells were plated and grown overnight at 37° C. The next day, the cells were transfected as described in Example 25 with 10 ng pGL4.13 (Promega Corp.) as a transfection control and 100 ng of the OgLuc test DNA. The media was removed, and the cells were lysed with 100 μL of lysis buffer as described in Example 25 except the lysis buffer contained 100 mM MES pH 6.0 instead of HEPES, and luminescence measured using a GLOMAX® Luminometer.
(§2) Based on the above data, further combination variants were designed and generated (see Table 10) in the context of the pF4Ag-based non-fusion vector background without the 170G. The variants were analyzed in E. coli, HEK293 and NIH3T3 cells as described above and compared to 9B8 opt+K33N. The variants were also examined for luminescence with native coelenterazine.
(§3) The brightness of the variants expressed in HEK293 and NIH3T3 cells was measured as described previously. The luminescence of the variants was normalized to the luminescence generated by 9B8 opt (Table 27).

[6] = Protein (thermal) stability of OgLuc variants at 50° C.; type: physicochemical; details: bacterial lysates, native coelenterazine
Protocol: Lysates of E. coli containing 15C1, 9B8, 9F6, 8A3 or IV and E. coli expressing hRL (SEQ ID NO: 30 and 31) were prepared from induced cultures as described previously. Lysate samples were diluted 1:1000 with a buffer containing 10 mM HEPES pH 7.5 with 0.1% gelatin. Diluted lysate (100 μL) samples, in replicate 96-well plates, were incubated at 50° C. At different time points, plates were placed at −70° C. (minus seventy degrees Celsius). Prior to measuring the luminescence as described previously, each plate was thawed at room temperature, i.e., 22° C., for 10 min. Samples (10 μL of each thawed sample) were assayed using native coelenterazine as a substrate. Luminescence was measured immediately after addition of assay buffer for each time point plate. The half-life of the protein, which indicated protein stability, was calculated from the luminescence data for each time point using methods known in the art.

NIH3T3 cells = test: Luminescence of OgLuc variants expressed in NIH3T3 cells; type: cell-based; details: PBI-3939
Protocol: as §1, §2, §3

HEK293 cells [7] = details: mole-to-mole basis, HT7 fusions
[8] = Stability of secreted OgLuc variants in saved media; type: physicochemical; details: secreted variant in saved media
Protocol: To determine if the secretion signal sequence of OgLuc facilitates its secretion, the OgLuc variants 9B8, V2 and L27V were cloned into pF4Ag containing an N-terminal OgLuc secretion signal sequence. The variants were also cloned into vectors without the secretion signal sequence. CHO or HeLa cells were then plates at 100,000 cells/well in 1 mL F12 media with 10% FBS and 1× sodium pyruvate (CHO cells) or DMEM with 10% FBS and 1× sodium pyruvate (HeLa cells) into 12-well plates and incubated overnight at 37° C., 5% CO2.
After the overnight incubation, the cells were transfected with 1 μg plasmid DNA containing 9B8, V2, or L27V with or without the secretion signal sequence using the TRANSIT®-LT1 transfection reagent (Mirus Bio) and OPTI-MEMO media (Invitrogen). The cells were again incubated overnight at 37° C., 5% CO2.
After the second overnight incubation, the media was removed and saved for analysis. […] To 10 μL of cell lysate or saved media from each sample, 50 μL assay buffer with 40 μM PBI-3939 was added, and luminescence measured as described above.
To determine the stability of the secreted variants, 150 μL aliquots of the saved media from each sample was placed at 37° C. or 50° C. The aliquots were then removed at different time points (0, 1, 2, 3, 5, 6, and 7 […]), frozen on dry ice, and kept at −20° C. until assayed. To assay for stability, the media aliquots were thawed to room temperature, and 10 μL of each aliquot was mixed with assay buffer with PBI-3939 (pH 6.0) as described above. Luminescence was measured as above, and the half-life (t50) determined (Table 34).

B1: 9B8: IV variant with Q18L, F68Y, L72Q, M75K (SEQ ID NO: 19) (protein)
chain: MVFTLEDFVGDWRQTAGYNLDQVLEQGGLSSLFQKLGVSVTPIQKIVLSGENGLKIDIHVIIPYEGLSGYQMGQIEKIFKVVYPVDDHHFKVILHYGTLVIDGVTPNMIDYFGRPYEGIAVFDGKKITVTGTLWNGNKIIDERLINPDGSLLFRVTINGVTGWRLCERILA
[1]
  1/2 life hours: 5.1 h
[2]; luminescence with PBI-3939 divided by luminescence with native coelenterazine
  Fold over coelenterazine: 7
[2]; luminescence with PBI-3939 normalized to 9B8 opt
  Fold over 9B8: 1.0
[3]
  Km: 7.7 µM
  Vmax: 86,000,000 RLU/0.5 sec
[4]
  half-life: 5.2 h
HEK293 cells [5]
  luminescence normalized to 9B8 opt, HEK293: 1.0
[6]
  ½ life (hrs): 5.8 h
  ½ life (min): 346.6 min
NIH3T3 cells
  luminescence normalized to 9B8 opt, NIH3T3: 1.0
HEK293 cells [7]
  fold brighter than Luc2: approximately 15 fold
  fold brighter than hRL: > 100 fold
[8]
  ½ life 37 C.: 8 days
  ½ life 50 C.: 3 h
